Experiment [1] concerns the target recombinant nucleoprotein (NP) protein derived from influenza virus H1N1 to which a Flag tag was fus (influenza virus H1N1).
Experiment [2] deals with T1, recombinant intranuclear protein (SEQ ID NO: 24) derived from a type-A influenza virus H1N1 (A/Puerto … (type-A influenza virus H1N1 (A/Puerto …, UniProt P03466 1-498))).
T1 construct: also called NP; NP antigen
Description: phage ELISA on immobilised NP, anti-M13 antibody detection, absorbance at 450 nm. For orientation: An ELISA detects its analyte on a solid surface through an enzyme-linked reagent.

The text below walks through data of US20190077836A1 (PANASONIC INTELLECTUAL PROPERTY MANAGEMENT, published 2019).

recombinant nucleoprotein (NP) protein derived from influenza virus H1N1 to which a Flag tag was fus (influenza virus H1N1), sequence (P03466 whole entry): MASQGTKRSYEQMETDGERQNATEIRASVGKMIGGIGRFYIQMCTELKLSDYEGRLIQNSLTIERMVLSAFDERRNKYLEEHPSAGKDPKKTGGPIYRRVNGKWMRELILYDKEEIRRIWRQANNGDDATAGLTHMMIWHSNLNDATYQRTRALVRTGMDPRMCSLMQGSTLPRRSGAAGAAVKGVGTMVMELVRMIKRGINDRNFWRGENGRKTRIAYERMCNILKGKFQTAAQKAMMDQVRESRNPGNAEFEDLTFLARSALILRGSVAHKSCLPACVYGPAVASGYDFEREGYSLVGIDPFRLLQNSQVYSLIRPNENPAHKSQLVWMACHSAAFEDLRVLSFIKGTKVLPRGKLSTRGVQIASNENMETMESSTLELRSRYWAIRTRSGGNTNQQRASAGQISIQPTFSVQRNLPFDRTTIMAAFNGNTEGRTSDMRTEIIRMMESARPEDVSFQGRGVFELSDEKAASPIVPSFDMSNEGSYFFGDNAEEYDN
T1 sequence (P03466 whole entry): as above

B1: VHH antibody including the amino acid sequence represented by SEQ ID NO: 8 (VHH)
VHH: QVQLVESGGGLVQTGGPLRLSCAVSDRTDSNYAMGWFRQAPGKEREFVAAISGTGYVTGYADSARNRFTLSRDNGKNAVYLQMNSLEPADTAVYYCAATSDQRYPGPRSSGYDYWGQGTQVTVSS
A word on the Kd: it is the free concentration of one partner at which half of the binding sites on the other are occupied at equilibrium, for simple one-to-one binding. As to B1, the dissociation constant Kd in experiment [1] worked out at 199 pM.

B2: monoclonal phage displaying the VHH antibody (DNA SEQ ID NO: 18, amino acid sequence SEQ ID NO: 8) (VHH)
VHH: QVQLVESGGGLVQTGGPLRLSCAVSDRTDSNYAMGWFRQAPGKEREFVAAISGTGYVTGYADSARNRFTLSRDNGKNAVYLQMNSLEPADTAVYYCAATSDQRYPGPRSSGYDYWGQGTQVTVSS
With B2, in experiment [2], the binding result is “binds”.
